The values below come from paper PMC5300874.

Assay [1] concerns the target (His)Rpo3ΔFeS2 (Methanosarcina acetivorans) (UniProt P0CG28). The experiment in a line: pull-down; merodiploid M. acetivorans strains (native Rpo3 also present), tetracycline-induced; (His)Rpo3 variant held on Ni2+-agarose from lysate, anaerobic; eluates normalised to 15 ng (His)Rpo3; western blot for Rpo11, Rpo2′, Rpo1″.
The target in assay [2] is (His)Rpo3ΔD3 (Methanosarcina acetivorans) (UniProt P0CG28).
The target of assay [3] is (His)Rpo3, N-terminally histidine-tagged wild-type Rpo3 expressed in Methanosarcina acetivorans (Methanosarcina acetivorans) (UniProt P0CG28).
The target in assay [4] is (His)Rpo3ΔFeS1 (Methanosarcina acetivorans) (UniProt P0CG28).
For assay [5], the target named is (His)Rpo3mFeS2 (Methanosarcina acetivorans) (UniProt P0CG28).

The substance “Rpo2′ (RpoB′), catalytic subunit of Methanosarcina acetivorans RNA polymerase (from UniProt Q8TRB6 1-604) (natural protein)” yielded a percent less in the eluate than with (His)Rpo3 (band intensity) in assay [1] of 50 % less.

In assay [2], “Rpo1″ (RpoA″), catalytic subunit of Methanosarcina acetivorans RNA polymerase (natural protein)” registered a nonspecific transcription (RNAP) activity of the imidazole eluate, gene replacement strain DJL54 (counts per min ng^-1 Rpo3) of 90. In assay [3], this substance showed a nonspecific transcription (RNAP) activity of the imidazole eluate, gene replacement strain DJL51 (counts per min ng^-1 Rpo3) of 210. In addition, the nonspecific transcription (RNAP) activity of the imidazole eluate, gene replacement strain DJL52 (counts per min ng^-1 Rpo3) in assay [4] is 33. The substance further had a nonspecific transcription (RNAP) activity of the imidazole eluate, gene replacement strain DJL55 (counts per min ng^-1 Rpo3) in assay [5] of 94.
